# Results published in US20240116985A1, “STAPLED PEPTIDES AND METHODS THEREOF” (priority 2020, published 2024).
# Starred links: 1 amine or outer side, 2 acyl side, 3 side chain; linkers in the order of their positions; H or OH if unused. Positions of bridges follow the written chain, without caps; N, C: chain ends. Non-standard residues stand in square brackets, D forms with d. Primed or numbered codes have the meaning given here. *: point of attachment. PyrS2″ = (S)-3-amino-1-((pent-4-en-1-yloxy)carbonyl)pyrrolidine-3-carboxylic acid (stapling residue), C=CCCCOC(=O)N1CC[C@@](N[*:1])(C(=O)[*:2])C1; SeN″ = (S)-5-(((allyloxy)carbonyl)(methyl)amino)-2-amino-2-methylpentanoic acid (stapling residue), C=CCOC(=O)N(C)CCC[C@](C)(N[*:1])C(=O)[*:2]; B5(4) = 2,2-bis(4-pentenyl)glycine = 2-amino-2-(pent-4-en-1-yl)hept-6-enoic acid (stitching residue), C=CCCCC(CCCC=C)(N[*:1])C(=O)[*:2]; B5(5) = 2,2-bis(4-pentenyl)glycine, 2-amino-2-(pent-4-en-1-yl)hept-6-enoic acid (stitching residue), C=CCCCC(CCCC=C)(N[*:1])C(=O)[*:2]; TfeGA = (S)-2-amino-3-((carboxymethyl)(2,2,2-trifluoroethyl)amino)propanoic acid, O=C([C@H](CN(CC(=O)[*:3])CC(F)(F)F)N[*:1])[*:2]; B5(3) = 2,2-bis(4-pentenyl)glycine (stitching residue), C=CCCCC(CCCC=C)(N[*:1])C(=O)[*:2]; B5 = 2-amino-2-(pent-4-en-1-yl)hept-6-enoic acid, C=CCCCC(CCCC=C)(N[*:1])C(=O)[*:2]; Phe(3-CF3) = N[C@@H](Cc1cccc(C(F)(F)F)c1)C(=O)O; Phe(3-COOH) = N[C@@H](Cc1cccc(C(=O)O)c1)C(=O)O; Phe(2-Cl) = N[C@@H](Cc1ccccc1Cl)C(=O)O; Phe(3-F) = N[C@@H](Cc1cccc(F)c1)C(=O)O; Phe(3-Me) = Cc1cccc(C[C@H](N)C(=O)O)c1; 1Nal = N[C@@H](Cc1cccc2ccccc12)C(=O)O; 2Nal = N[C@@H](Cc1ccc2ccccc2c1)C(=O)O; Ala(cPent) = N[C@@H](CC1CCCC1)C(=O)O; Bta = N[C@@H](Cc1csc2ccccc12)C(=O)O; αAllylPro = C=CC[C@@]1(C(=O)O)CCCN1; tBuAla = CC(C)(C)C[C@H](N)C(=O)O; 2Pal = N[C@@H](Cc1ccccn1)C(=O)O; 4Pal = N[C@@H](Cc1ccncc1)C(=O)O; 2Thi = N[C@@H](Cc1cccs1)C(=O)O; 3Thi = N[C@@H](Cc1ccsc1)C(=O)O; S8 = C=CCCCCCC[C@](C)(N)C(=O)O; Butoxycarbonyl = CCCCOC(=O)*; hSer = N[C@@H](CCO)C(=O)O; Nle = CCCC[C@H](N)C(=O)O
# What was measured:
# [1] = target: full-length beta-Catenin (Uniprot ID P35222) (Homo sapiens (Human)) (UniProt P35222); assay: fluorescence polarization competition; full-length beta-catenin, 5FAM-TCF4(10-53) probe displaced
# Target sequence in this assay (P35222 whole entry, the tested form may be a part): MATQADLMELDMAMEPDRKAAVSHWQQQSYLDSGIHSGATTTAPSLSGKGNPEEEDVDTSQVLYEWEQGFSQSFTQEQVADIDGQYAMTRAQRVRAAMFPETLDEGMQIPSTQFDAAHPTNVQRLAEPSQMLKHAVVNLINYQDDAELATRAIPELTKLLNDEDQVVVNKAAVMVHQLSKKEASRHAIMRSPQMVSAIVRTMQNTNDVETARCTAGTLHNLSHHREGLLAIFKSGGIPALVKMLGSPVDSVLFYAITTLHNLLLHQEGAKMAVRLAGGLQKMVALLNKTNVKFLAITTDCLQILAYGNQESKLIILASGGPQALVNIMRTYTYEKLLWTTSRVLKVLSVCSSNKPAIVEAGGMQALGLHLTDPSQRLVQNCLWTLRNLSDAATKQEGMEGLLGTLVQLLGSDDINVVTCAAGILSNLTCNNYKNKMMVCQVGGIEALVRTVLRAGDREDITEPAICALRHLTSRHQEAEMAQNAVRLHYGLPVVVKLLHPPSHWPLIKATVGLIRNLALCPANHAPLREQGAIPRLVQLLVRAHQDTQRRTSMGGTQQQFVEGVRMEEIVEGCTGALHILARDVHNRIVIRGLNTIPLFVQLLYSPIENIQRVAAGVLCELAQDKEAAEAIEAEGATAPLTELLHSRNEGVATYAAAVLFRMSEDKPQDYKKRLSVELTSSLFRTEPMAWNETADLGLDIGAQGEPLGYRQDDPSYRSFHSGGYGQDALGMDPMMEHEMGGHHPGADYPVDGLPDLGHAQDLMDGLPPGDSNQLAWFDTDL
# [2] = target: full-length beta-Catenin (Uniprot ID P35222) (Homo sapiens (Human)) (UniProt P35222); assay: fluorescence polarization competition; 10 nM full-length beta-catenin + 10 nM 5FAM-TCF4(10-53) probe, peptide titrated 10 uM to 5 nM
# Target sequence in this assay (P35222 2-781 limits assumed): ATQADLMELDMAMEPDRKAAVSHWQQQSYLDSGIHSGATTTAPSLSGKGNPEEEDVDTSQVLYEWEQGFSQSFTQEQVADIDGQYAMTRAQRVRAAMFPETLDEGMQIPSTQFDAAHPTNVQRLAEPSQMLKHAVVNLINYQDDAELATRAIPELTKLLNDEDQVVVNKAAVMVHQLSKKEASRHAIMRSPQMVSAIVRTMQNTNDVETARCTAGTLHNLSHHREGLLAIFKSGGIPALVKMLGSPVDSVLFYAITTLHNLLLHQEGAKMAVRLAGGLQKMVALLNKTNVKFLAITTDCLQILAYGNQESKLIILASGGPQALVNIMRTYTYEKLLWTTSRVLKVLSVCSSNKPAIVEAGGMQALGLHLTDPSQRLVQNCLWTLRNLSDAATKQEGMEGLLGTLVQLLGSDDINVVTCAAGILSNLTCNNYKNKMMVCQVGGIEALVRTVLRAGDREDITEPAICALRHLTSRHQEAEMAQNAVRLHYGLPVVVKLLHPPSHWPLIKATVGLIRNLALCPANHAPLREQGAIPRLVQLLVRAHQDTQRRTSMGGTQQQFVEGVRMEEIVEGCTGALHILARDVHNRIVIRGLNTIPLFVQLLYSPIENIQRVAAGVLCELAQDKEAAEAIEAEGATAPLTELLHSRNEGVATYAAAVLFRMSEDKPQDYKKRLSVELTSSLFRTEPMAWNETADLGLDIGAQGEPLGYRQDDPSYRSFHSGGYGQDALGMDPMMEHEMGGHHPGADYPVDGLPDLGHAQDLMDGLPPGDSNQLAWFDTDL
# [3] = target: full-length beta-Catenin (Uniprot ID P35222) (Homo sapiens (Human)) (UniProt P35222); assay: fluorescence polarization competition; full-length beta-catenin with 5FAM-labeled TCF4 (residues 10-53) probe as competitor
# Target sequence in this assay (P35222 whole entry, the tested form may be a part): as the sequence (P35222 whole entry, the tested form may be a part) above
# [4] = target: full-length beta-Catenin (Uniprot ID P35222) (Homo sapiens (Human)) (UniProt P35222); assay: fluorescence polarization competition; 10 nM full-length beta-catenin, competitor 10 nM 5FAM-TCF4(10-53)
# Target sequence in this assay (P35222 whole entry, the tested form may be a part): as above
# [5] = target: full-length beta-Catenin (Uniprot ID P35222) (Homo sapiens (Human)) (UniProt P35222); assay: fluorescence polarization competition against 5FAM-TCF4(10-53), full-length beta-catenin
# Target sequence in this assay (P35222 whole entry, the tested form may be a part): as above
# [6] = target: full-length beta-Catenin (Uniprot ID P35222) (Homo sapiens (Human)) (UniProt P35222); assay: fluorescence polarization competition; 10 nM full-length beta-catenin + 10 nM 5FAM-TCF4(10-53) probe, peptide titrated
# Target sequence in this assay (P35222 2-781 limits assumed): as the sequence (P35222 2-781 limits assumed) above
# [7] = target: full-length beta-Catenin (Uniprot ID P35222) (Homo sapiens (Human)) (UniProt P35222); assay: fluorescence polarization competition against 5FAM-TCF4(10-53) on full-length beta-catenin
# Target sequence in this assay (P35222 whole entry, the tested form may be a part): as the sequence (P35222 whole entry, the tested form may be a part) above
# [8] = target: full-length beta-Catenin (Uniprot ID P35222) (Homo sapiens (Human)) (UniProt P35222); assay: fluorescence polarization competition; full-length beta-catenin + 5FAM-TCF4(10-53) probe
# Target sequence in this assay (P35222 whole entry, the tested form may be a part): as above
IC50 [1] [nM],IC50 [3] [nM],Binder,further results
14,–,"Ac-[αAllylPro]N[tBuAla][B5(3)]DDAAFL[PyrS2″][3Thi][Bta]Q-NH2 (staple 1-4, 4-11) [Ac-PL3-Asn-Npg-B5-Asp-Asp-Ala-Ala-Phe-Leu-PyrS2-3Thi-BztA-Gln-NH2]",–
–,–,"Ac-[αAllylPro]N[tBuAla][B5(5)]DHAAFL[PyrS2″]F[Bta]Q-NH2 (staple 1-4, 4-11) [I-2442]",IC50 [2]: 282 nM
–,5000,"Ac-[αAllylPro]DA[B5]DEAA[2Pal]V[S8]F[Bta]Q-NH2 (staple 1-4, 4-11; not fully specified; printed as Ac-PL3-Asp-Ala-B5-Asp-Glu-Ala-Ala-2pyrA-Val-S8-Phe-BztA-Gln-NH2) [I-386]",EC50 [4]: 5000 nM
32,–,"Ac-[αAllylPro]D[tBuAla][B5(3)]NDAAFN[PyrS2″][3Thi][Bta]Q-NH2 (staple 1-4, 4-11) [Ac-PL3-Asp-Npg-B5-Asn-Asp-Ala-Ala-Phe-Asn-PyrS2-3Thi-BztA-Gln-NH2]",–
–,3150,"Ac-[αAllylPro]DA[B5(4)]DEAAFV[S8][4Pal][Bta]Q-NH2 (staple 1-4, 4-11) [I-385]",EC50 [4]: 3150 nM
–,–,"Butoxycarbonyl-[αAllylPro]D[tBuAla][B5(4)]D[Phe(3-COOH)]AAFL[PyrS2″][Phe(2-Cl)][Bta]A-NH2 (staple 1-4, 4-11) [I-2304]",IC50 [5]: 511 nM
–,189,"Ac-[αAllylPro]D[Nle][B5(3)]DEAAFA[S8]F[Bta]Q-NH2 (staple 1-4, 4-11) [I-411]",EC50 [6]: 189 nM
–,1950,"Ac-[αAllylPro]DA[B5]DEAAFV[S8][Ala(cPent)][Bta]Q-NH2 (staple 1-4, 4-11) [I-393]",EC50 [4]: 1950 nM
–,–,Ac-[αAllylPro]D[tBuAla][B5(3)]DTAAFT[PyrS2″][2Nal][Bta]S-NH2 (staple 1-4; staple 4-11 (inferred); not fully specified; printed as Ac-PL3-Asp-Npg-B5-Asp-Thr-Ala-Ala-Phe-Thr-PyrS2-2NapA-BztA-Ser-NH2) [I-1270],IC50 [7]: 3700 nM; EC50 [8]: 3700 nM
479,–,"Ac-[αAllylPro]D[tBuAla][B5(5)]SDAAFL[PyrS2″][3Thi][Bta]Q-NH2 (staple 1-4, 4-11) [Ac-PL3-Asp-Npg-B5-Ser-Asp-Ala-Ala-Phe-Leu-PyrS2-3Thi-BztA-Gln-NH2]",–
–,–,Ac-[αAllylPro]D[tBuAla][B5(3)]DTAAFT[PyrS2″][Phe(3-CF3)][Bta]S-NH2 (staple 1-4; staple 4-11 (inferred); not fully specified; printed as Ac-PL3-Asp-Npg-B5-Asp-Thr-Ala-Ala-Phe-Thr-PyrS2-3F3MeF-BztA-Ser-NH2) [I-1271],IC50 [7]: 682 nM; EC50 [8]: 682 nM
–,1850,"Ac-[αAllylPro]DA[B5(4)]D[TfeGA]AA[Phe(3-Me)]Q[S8][Phe(3-F)][Bta]Q-NH2 (staple 1-4, 4-11) [I-404]",EC50 [6]: 1850 nM
–,5000,"Ac-[αAllylPro]DA[B5]DEAA[Ala(cPent)]V[S8]F[Bta]Q-NH2 (staple 1-4, 4-11) [I-392]",EC50 [4]: 5000 nM
389,–,"Ac-[αAllylPro]Q[tBuAla][B5(5)]DDAAFN[PyrS2″][3Thi][Bta]Q-NH2 (staple 1-4, 4-11) [Ac-PL3-Gln-Npg-B5-Asp-Asp-Ala-Ala-Phe-Asn-PyrS2-3Thi-BztA-Gln-NH2]",–
–,2620,"Ac-[αAllylPro]DA[B5]DEAA[2Pal]V[S8]F[Bta]Q-NH2 (staple 1-4, 4-11; not fully specified; printed as Ac-PL3-Asp-Ala-B5-Asp-Glu-Ala-Ala-2pyrA-Val-S8-Phe-BztA-Gln-NH2) [I-387]",EC50 [4]: 2620 nM
305,–,"Ac-[αAllylPro]Q[tBuAla][B5(5)]DDAAFL[PyrS2″][3Thi][Bta]Q-NH2 (staple 1-4, 4-11) [Ac-PL3-Gln-Npg-B5-Asp-Asp-Ala-Ala-Phe-Leu-PyrS2-3Thi-BztA-Gln-NH2]",–
550,–,"Ac-[αAllylPro]S[tBuAla][B5(5)]DDAAFL[PyrS2″][3Thi][Bta]Q-NH2 (staple 1-4, 4-11) [Ac-PL3-Ser-Npg-B5-Asp-Asp-Ala-Ala-Phe-Leu-PyrS2-3Thi-BztA-Gln-NH2]",–

IC50 [1] [nM],IC50 [3] [nM],Binder,further results
8660,–,"Ac-[αAllylPro]D[tBuAla][B5(5)]LDAAFN[PyrS2″][3Thi][Bta]Q-NH2 (staple 1-4, 4-11) [Ac-PL3-Asp-Npg-B5-Leu-Asp-Ala-Ala-Phe-Asn-PyrS2-3Thi-BztA-Gln-NH2]",–
–,–,Ac-[αAllylPro]D[tBuAla][B5(3)]DTAAFT[PyrS2″]F[1Nal]S-NH2 (staple 1-4; staple 4-11 (inferred); not fully specified; printed as Ac-PL3-Asp-Npg-B5-Asp-Thr-Ala-Ala-Phe-Thr-PyrS2-Phe-1NapA-Ser-NH2) [I-1272],IC50 [7]: 331 nM; EC50 [8]: 331 nM
216,–,"Ac-[αAllylPro]D[tBuAla][B5(5)][hSer]DAAFL[PyrS2″][3Thi][Bta]Q-NH2 (staple 1-4, 4-11) [Ac-PL3-Asp-Npg-B5-Hse-Asp-Ala-Ala-Phe-Leu-PyrS2-3Thi-BztA-Gln-NH2]",–
511,–,"Ac-[αAllylPro]S[tBuAla][B5(5)]DDAAFN[PyrS2″][3Thi][Bta]Q-NH2 (staple 1-4, 4-11) [Ac-PL3-Ser-Npg-B5-Asp-Asp-Ala-Ala-Phe-Asn-PyrS2-3Thi-BztA-Gln-NH2]",–
116,–,"Ac-[αAllylPro]D[tBuAla][B5(5)][hSer]DAAFN[PyrS2″][3Thi][Bta]Q-NH2 (staple 1-4, 4-11) [Ac-PL3-Asp-Npg-B5-Hse-Asp-Ala-Ala-Phe-Asn-PyrS2-3Thi-BztA-Gln-NH2]",–
–,5000,"Ac-[αAllylPro]DA[B5(4)]DEAAFV[S8][Phe(3-Me)][Bta]Q-NH2 (staple 1-4, 4-11) [I-395]",EC50 [4]: 5000 nM
–,134,"Ac-[αAllylPro]DA[B5(4)]DEAA[2Thi]Q[S8][Phe(3-F)][Bta]Q-NH2 (staple 1-4, 4-11) [I-401]",EC50 [6]: 134 nM
40,–,"Ac-[αAllylPro]D[tBuAla][B5(3)]NDAAFL[PyrS2″][3Thi][Bta]Q-NH2 (staple 1-4, 4-11) [Ac-PL3-Asp-Npg-B5-Asn-Asp-Ala-Ala-Phe-Leu-PyrS2-3Thi-BztA-Gln-NH2]",–
–,5000,"Ac-[αAllylPro]DA[B5(4)]D[2Thi]AAFV[S8][Phe(3-F)][Bta]Q-NH2 (staple 1-4, 4-11) [I-402]",EC50 [6]: 5000 nM
–,–,"Ac-[αAllylPro][hSer][tBuAla][B5(5)]DQAAFL[PyrS2″]F[Bta]Q-NH2 (staple 1-4, 4-11) [I-2443]",IC50 [2]: 6670 nM
56,–,"Ac-[αAllylPro]D[tBuAla][B5(5)]QDAAFN[PyrS2″][3Thi][Bta]Q-NH2 (staple 1-4, 4-11) [Ac-PL3-Asp-Npg-B5-Gln-Asp-Ala-Ala-Phe-Asn-PyrS2-3Thi-BztA-Gln-NH2]",–
–,3820,"Ac-[αAllylPro]DA[B5(3)]D[TfeGA]AA[Phe(3-Me)]Q[SeN″][Phe(3-F)][Bta]Q-NH2 (staple 1-4, 4-11) [I-405]",EC50 [6]: 3820 nM
–,70,"Ac-[αAllylPro]DI[B5(3)]DEAAFQ[S8]F[Bta]-NH2 (staple 1-4, 4-11; also: staple isomer composition, later eluting HPLC peak) [I-409]",EC50 [6]: 70 nM
349,–,"Ac-[αAllylPro]D[tBuAla][B5(5)]SDAAFN[PyrS2″][3Thi][Bta]Q-NH2 (staple 1-4, 4-11) [Ac-PL3-Asp-Npg-B5-Ser-Asp-Ala-Ala-Phe-Asn-PyrS2-3Thi-BztA-Gln-NH2]",–
115,–,"Ac-[αAllylPro]D[tBuAla][B5(5)]QDAAFL[PyrS2″][3Thi][Bta]Q-NH2 (staple 1-4, 4-11) [Ac-PL3-Asp-Npg-B5-Gln-Asp-Ala-Ala-Phe-Leu-PyrS2-3Thi-BztA-Gln-NH2]",–
–,120,"Ac-[αAllylPro]DI[B5(3)]DEAAFQ[S8]F[Bta]-NH2 (staple 1-4, 4-11; also: staple isomer composition, earlier eluting HPLC peak) [I-408]",EC50 [6]: 120 nM
